Source: patent publication US20250250357A1
Each block holds one substance with its values, some of them ahead of it.

How the values were obtained:
[1] = target: human MSLN-R2-his protein (human) (UniProt Q13421); test: ELISA, coated MSLN-R2
[2] = target: human MSLN-R3-3 polypeptide (human); test: ELISA, coated MSLN-R3-3
[3] = target: human MSLN-FL-his protein (human) (UniProt Q13421); test: ELISA on coated antigen, antibody 1 nM
[4] = target: human MSLN-R3-3 polypeptide (human); test: ELISA on coated antigen, antibody 1 nM
[5] = target: human MSLN-R3-3 polypeptide (human); test: ELISA on coated antigen, antibody 10 nM
[6] = target: human MSLN-FL-his protein (human) (UniProt Q13421); test: ELISA on coated antigen, antibody 0.1 nM
[7] = target: human MSLN-R3-3 polypeptide (human); test: ELISA on coated antigen, antibody 0.1 nM
[8] = target: human MSLN-FL-his protein (human) (UniProt Q13421); test: ELISA on coated antigen, antibody 100 nM
[9] = target: human MSLN-R3-3 polypeptide (human); test: ELISA on coated antigen, antibody 100 nM
[10] = target: human MSLN-R3-3 polypeptide (human); test: ELISA, coated antigen; antibody 0.001 nM
[11] = target: human MSLN-FL-his protein (human) (UniProt Q13421); test: ELISA on coated antigen, antibody 0.01 nM
[12] = target: human MSLN-R3-3 polypeptide (human); test: ELISA on coated antigen, antibody 0.01 nM
[13] = target: human MSLN-R3-3 polypeptide (human); test: ELISA, coated antigen; antibody 0.0001 nM
[14] = target: human MSLN-R3-3 polypeptide (human); test: ELISA on coated antigen, antibody 0.001 nM
[15] = target: human MSLN-R3-3 polypeptide (human); test: ELISA on coated antigen, antibody 0.0001 nM
[16] = target: human MSLN-R2-his protein (human) (UniProt Q13421); test: ELISA on coated antigen, antibody 0.0002 nM
[17] = target: human MSLN-R3-his protein (human) (UniProt Q13421); test: ELISA on coated antigen, antibody 0.0002 nM
human MSLN-R3-his protein (human), sequence (Q13421 495-606): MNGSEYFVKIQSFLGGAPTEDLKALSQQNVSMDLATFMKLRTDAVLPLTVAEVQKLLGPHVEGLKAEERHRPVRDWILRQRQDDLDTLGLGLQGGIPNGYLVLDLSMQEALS

[18] = target: human MSLN-R3-3 polypeptide (human); test: ELISA on coated antigen, no antibody (column none)
[19] = target: human MSLN-R3-3 polypeptide (human); test: ELISA, coated antigen; no antibody (blank, column 'none')
[20] = target: human MSLN-FL-his protein (human) (UniProt Q13421); test: ELISA on coated antigen, no antibody (blank, column 'none')
[21] = target: human MSLN-R3-3 polypeptide (human); test: ELISA; antibody 1 nM
[22] = target: human MSLN protein, endogenously expressed on Hela and OVCAR3 cells (human) (UniProt Q13421); test: FACS on OVCAR3 cells; antibody […]
human MSLN protein, endogenously expressed on Hela and OVCAR3 cells (human), sequence (Q13421 other isoform, or with tags, fused parts or gaps): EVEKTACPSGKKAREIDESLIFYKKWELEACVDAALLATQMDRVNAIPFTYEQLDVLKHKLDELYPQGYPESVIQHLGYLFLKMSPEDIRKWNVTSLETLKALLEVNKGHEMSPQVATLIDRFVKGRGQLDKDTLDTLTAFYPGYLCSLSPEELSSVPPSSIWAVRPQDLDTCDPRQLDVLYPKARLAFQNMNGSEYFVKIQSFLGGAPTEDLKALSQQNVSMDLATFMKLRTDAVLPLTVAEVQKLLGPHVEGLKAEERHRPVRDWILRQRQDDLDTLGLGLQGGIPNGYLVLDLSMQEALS

[23] = target: human MSLN protein, endogenously expressed on Hela and OVCAR3 cells (human) (UniProt Q13421); test: FACS on OVCAR3 cells; antibody 4 nM
[24] = target: human MSLN protein, endogenously expressed on Hela and OVCAR3 cells (human) (UniProt Q13421); test: FACS on OVCAR3 cells; antibody 20 nM
[25] = target: human MSLN protein, endogenously expressed on Hela and OVCAR3 cells (human) (UniProt Q13421); test: FACS on OVCAR3 cells; antibody 0.8 nM
[26] = target: human MSLN protein, endogenously expressed on Hela and OVCAR3 cells (human) (UniProt Q13421); test: FACS on OVCAR3 cells; antibody 100 nM
[27] = target: human MSLN protein, endogenously expressed on Hela and OVCAR3 cells (human) (UniProt Q13421); test: FACS on OVCAR3 cells; antibody 0.032 nM
[28] = target: human MSLN protein, endogenously expressed on Hela and OVCAR3 cells (human) (UniProt Q13421); test: FACS on OVCAR3 cells; antibody 0.0064 nM
[29] = target: human MSLN protein, endogenously expressed on Hela and OVCAR3 cells (human) (UniProt Q13421); test: FACS on OVCAR3 cells; antibody 0.00128 nM
[30] = target: human MSLN full-length protein (NCBI: AAH09272.1) on stably transfected CHO-K1 or HEK293T cells (human) (UniProt Q13421); test: FACS on CHO-K1-hMSLN-2C8 cells; antibody […]
[31] = target: human MSLN full-length protein (NCBI: AAH09272.1) on stably transfected CHO-K1 or HEK293T cells (human) (UniProt Q13421); test: FACS on CHO-K1-hMSLN-2C8 cells; antibody 4 nM
[32] = target: human MSLN full-length protein (NCBI: AAH09272.1) on stably transfected CHO-K1 or HEK293T cells (human) (UniProt Q13421); test: FACS on CHO-K1-hMSLN-2C8 cells; antibody 20 nM
[33] = target: human MSLN full-length protein (NCBI: AAH09272.1) on stably transfected CHO-K1 or HEK293T cells (human) (UniProt Q13421); test: FACS on CHO-K1-hMSLN-2C8 cells; antibody 0.8 nM
[34] = target: human MSLN full-length protein (NCBI: AAH09272.1) on stably transfected CHO-K1 or HEK293T cells (human) (UniProt Q13421); test: FACS on CHO-K1-hMSLN-2C8 cells; antibody 100 nM
[35] = target: monkey MSLN full-length protein (NCBI: XP_028696439.1) on HEK293T cells (monkey); test: FACS on HEK293T-monkey MSLN cells; antibody […]
[36] = target: monkey MSLN full-length protein (NCBI: XP_028696439.1) on HEK293T cells (monkey); test: FACS on HEK293T-monkey MSLN cells; antibody 4 nM
[37] = target: human MSLN full-length protein (NCBI: AAH09272.1) on stably transfected CHO-K1 or HEK293T cells (human) (UniProt Q13421); test: FACS on CHO-K1-hMSLN-2C8 cells; antibody 0.032 nM
[38] = target: monkey MSLN full-length protein (NCBI: XP_028696439.1) on HEK293T cells (monkey); test: FACS on HEK293T-monkey MSLN cells; antibody 20 nM
[39] = target: human MSLN full-length protein (NCBI: AAH09272.1) on stably transfected CHO-K1 or HEK293T cells (human) (UniProt Q13421); test: FACS on CHO-K1-hMSLN-2C8 cells; antibody 0.0064 nM
[40] = target: monkey MSLN full-length protein (NCBI: XP_028696439.1) on HEK293T cells (monkey); test: FACS on HEK293T-monkey MSLN cells; antibody 0.8 nM
[41] = target: monkey MSLN full-length protein (NCBI: XP_028696439.1) on HEK293T cells (monkey); test: FACS on HEK293T-monkey MSLN cells; antibody 100 nM
[42] = target: human MSLN full-length protein (NCBI: AAH09272.1) on stably transfected CHO-K1 or HEK293T cells (human) (UniProt Q13421); test: FACS on CHO-K1-hMSLN-2C8 cells; antibody 0.00128 nM
[43] = target: monkey MSLN full-length protein (NCBI: XP_028696439.1) on HEK293T cells (monkey); test: FACS on HEK293T-monkey MSLN cells; antibody 0.032 nM
[44] = target: monkey MSLN full-length protein (NCBI: XP_028696439.1) on HEK293T cells (monkey); test: FACS on HEK293T-monkey MSLN cells; antibody 0.0064 nM
[45] = target: monkey MSLN full-length protein (NCBI: XP_028696439.1) on HEK293T cells (monkey); test: FACS on HEK293T-monkey MSLN cells; antibody 0.00128 nM

human MSLN-FL-his protein (human), sequence (Q13421 other isoform, or with tags, fused parts or gaps): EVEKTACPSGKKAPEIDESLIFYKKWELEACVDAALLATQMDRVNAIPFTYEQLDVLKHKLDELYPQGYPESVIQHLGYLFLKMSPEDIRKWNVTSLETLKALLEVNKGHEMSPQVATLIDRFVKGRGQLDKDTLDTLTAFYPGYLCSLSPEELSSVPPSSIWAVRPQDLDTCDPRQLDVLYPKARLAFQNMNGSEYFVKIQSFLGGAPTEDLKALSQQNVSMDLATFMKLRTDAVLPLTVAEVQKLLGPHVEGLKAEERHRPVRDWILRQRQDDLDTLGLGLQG
human MSLN-R2-his protein (human), sequence (Q13421 other isoform, or with tags, fused parts or gaps): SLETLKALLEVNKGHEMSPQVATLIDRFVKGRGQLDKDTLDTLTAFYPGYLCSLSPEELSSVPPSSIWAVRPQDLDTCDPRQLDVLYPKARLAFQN

OD450 at 0.0001 nM [1]: 0.03 OD450
Substance: Tab108 (YP218, scFv-hIgG1 Fc) (Fc fusion)

OD450 at 0.0001 nM [2]: 0.07 OD450
OD450 at 0.001 nM [2]: 0.07 OD450
OD450 at 0.01 nM [2]: 0.06 OD450
OD450 at 0.1 nM [2]: 0.06 OD450
OD450 at 1 nM [2]: 0.06 OD450
OD450 at 10 nM [2]: 0.07 OD450
OD450 at none (no antibody) [2]: 0.08 OD450
OD450 [3]: 0.04 OD
OD450 [4]: 0.05 OD450
OD450 [5]: 0.05 OD450
OD450 [6]: 0.04 OD
OD450 [7]: 0.05 OD450
OD450 [8]: 0.1 OD450
OD450 [9]: 0.06 OD450
OD450 [10]: 0.08 OD450
OD450 [11]: 0.04 OD
OD450 [12]: 0.05 OD450
OD450 [13]: 0.07 OD450
OD450 [14]: 0.05 OD450
OD450 [15]: 0.05 OD450
OD450 [16]: 0.52 OD
OD450 [17]: 0.33 OD
OD450 [18]: 0.05 OD450
OD450 [19]: 0.07 OD450
OD450 [20]: 0.04 OD
Substance: anti-hel-hIgG1 (antibody)

OD450 nm [21]: 0.06
FACS fluorescence intensity [22]: 74
FACS fluorescence intensity [23]: 74
FACS fluorescence intensity [24]: 78
FACS fluorescence intensity [25]: 76
FACS fluorescence intensity [26]: 93
FACS fluorescence intensity [27]: 75
FACS fluorescence intensity [28]: 74
FACS fluorescence intensity [29]: 75
FACS fluorescence intensity [30]: 59
FACS fluorescence intensity [31]: 110
FACS fluorescence intensity [32]: 156
FACS fluorescence intensity [33]: 80
FACS fluorescence intensity [34]: 72
FACS fluorescence intensity [35]: 85
FACS fluorescence intensity [36]: 85
FACS fluorescence intensity [37]: 59
FACS fluorescence intensity [38]: 84
FACS fluorescence intensity [39]: 65
FACS fluorescence intensity [40]: 87
FACS fluorescence intensity [41]: 127
FACS fluorescence intensity [42]: 116
FACS fluorescence intensity [43]: 125
FACS fluorescence intensity [44]: 85
FACS fluorescence intensity [45]: 84
Substance: hIgG1 (human IgG1 subtype control of Example 1) (antibody)
